Laboratory results from the supplement of paper PMC7877785.
± gives the uncertainty stated by the source.

Assay: self-splicing fitness, log relative to wild type (ln ratio); higher = more splicing; Tetrahymena group I intron in knt gene, E. coli kanamycin selection, DiMSum; sequences stand for … in CUCUCU…GGAGGGAAAAGUUAUCAGGCAUGCACCUGGUAGCUAGUCUUUAAACCAAUAGAUUGCAUCGGUUUAAAAGGCAAGACCGUCAAAUUGCGGGAAAGGGGUCAACAGCCGUUCAGUACCAAGUCUCAGGGGAAACUUUGAGAUGGCCUUGCAAAGGGUAUGGUAAUAAGCUGACGGACAUGGUCCUAACCACGCAGCCAAGUCCUAAGUCAACAGAUCUUCUGUUGAUAUGGAUGCAGUUCACAGACUAAAUGUCGGUCGGGGAAGAUGUAUUCUUCUCAUAAGAUAUAGUCGGACCUCUCCUUAAUGGGAGCUAGCGGAUGAAGUGAUGCAACACUGGAGCCGCUGGGAACUAAUUUGUAUGCGAAAGUAUAUUGAUUAGUUUUGGAGUACUCGUGGUCG
In short: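 Colonies from six replicate transformations of E. coli BL21(DE3) were pooled and amplicon-sequenced on an Illumina HiSeq 2500. The library placed an intron with all eight P1ex-region nucleotides randomised inside the knt kanamycin-resistance gene on pET-22b(+), and cells grew overnight at 37°C or 30°C on LB agar with or without 25 μg/mL kanamycin (plus 100 μg/mL carbenicillin, 50 μM IPTG, 0.2% rhamnose). Fitness is the DiMSum error-weighted combination of wild-type-normalised replicate fold changes, kanamycin versus none.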

| Sequence | self-splicing fitness (ln) (30 °C) | self-splicing fitness (ln) (37 °C) |
| --- | --- | --- |
| GGUUAGCAAUAUUACGAGGA | -3.3 ± 0.29 | -1.96 ± 0.24 |
| GGUUAGCAAUAUUACGAUCU | -1.04 ± 0.24 | -0.76 ± 0.24 |
| GGUUAGCAAUAUUACGAUGG | -1.88 ± 0.23 | -1.16 ± 0.24 |
| GGUUAGCAAUAUUACGAUUA | -0.191 ± 0.13 | 0.0365 ± 0.12 |
| GGUUAGCAAUAUUACGCACG | -0.656 ± 0.11 | -0.507 ± 0.13 |
| GGUUAGCAAUAUUACGCAGU | -1.5 ± 0.27 | -1.67 ± 0.3 |
| GGUUAGCAAUAUUACGCCAU | -1.39 ± 0.38 | – |
| GGUUAGCAAUAUUACGCCCU | -0.754 ± 0.45 | -0.983 ± 0.48 |
| GGUUAGCAAUAUUACGCGAU | -2.48 ± 0.23 | -3.48 ± 0.46 |
| GGUUAGCAAUAUUACGCGUC | -1.53 ± 0.2 | -1.04 ± 0.18 |
| GGUUAGCAAUAUUACGCGUG | -0.908 ± 0.051 | -0.592 ± 0.063 |
| GGUUAGCAAUAUUACGCUGG | -3.44 ± 0.47 | -1.59 ± 0.31 |
| GGUUAGCAAUAUUACGGAAA | -1.53 ± 0.25 | -1.76 ± 0.22 |
| GGUUAGCAAUAUUACGGAAG | – | -2.49 ± 0.36 |
| GGUUAGCAAUAUUACGGAGU | -1.27 ± 0.18 | -0.724 ± 0.2 |
| GGUUAGCAAUAUUACGGAUG | -0.648 ± 0.1 | -0.92 ± 0.14 |
| GGUUAGCAAUAUUACGGAUU | 0.0654 ± 0.078 | -0.0766 ± 0.092 |
| GGUUAGCAAUAUUACGGCGA | -0.237 ± 0.09 | 0.106 ± 0.086 |
| GGUUAGCAAUAUUACGGCGC | 0.645 ± 0.28 | -0.634 ± 0.25 |
| GGUUAGCAAUAUUACGGGCG | 0.777 ± 0.094 | 0.208 ± 0.1 |
| GGUUAGCAAUAUUACGUAAA | -1.22 ± 0.13 | -0.462 ± 0.2 |
| GGUUAGCAAUAUUACGUCGG | -2.3 ± 0.36 | -1.7 ± 0.35 |
| GGUUAGCAAUAUUACGUCGU | -0.855 ± 0.073 | 0.451 ± 0.11 |
| GGUUAGCAAUAUUACGUCUC | -0.348 ± 0.15 | -0.0912 ± 0.18 |

| Sequence | self-splicing fitness (ln) (30 °C) | self-splicing fitness (ln) (37 °C) |
| --- | --- | --- |
| GGUUAGCAAUAUUACGUGAG | -0.894 ± 0.098 | -0.197 ± 0.12 |
| GGUUAGCAAUAUUACGUUCC | -1.45 ± 0.11 | -0.8 ± 0.12 |
| GGUUAGCAAUAUUACGUUGU | -2.02 ± 0.15 | -1.71 ± 0.18 |
| GUAAAGCAAUAUUACGAACA | -0.969 ± 0.15 | 0.323 ± 0.16 |
| GUAAAGCAAUAUUACGAAGC | -1.89 ± 0.13 | -1.83 ± 0.22 |
| GUAAAGCAAUAUUACGACCU | 0.443 ± 0.18 | 0.00961 ± 0.19 |
| GUAAAGCAAUAUUACGACUG | -2.11 ± 0.2 | -1.48 ± 0.28 |
| GUAAAGCAAUAUUACGAGGA | -1.81 ± 0.1 | -1.52 ± 0.15 |
| GUAAAGCAAUAUUACGAGUU | -1.12 ± 0.093 | -0.815 ± 0.12 |
| GUAAAGCAAUAUUACGAUAC | -0.815 ± 0.14 | -0.547 ± 0.16 |
| GUAAAGCAAUAUUACGAUUC | 0.475 ± 0.08 | 0.115 ± 0.091 |
| GUAAAGCAAUAUUACGCAAA | -0.784 ± 0.13 | -0.594 ± 0.16 |
| GUAAAGCAAUAUUACGCAGU | -2.99 ± 0.18 | -1.06 ± 0.16 |
| GUAAAGCAAUAUUACGCAUU | -1.76 ± 0.099 | -0.597 ± 0.11 |
| GUAAAGCAAUAUUACGCCGC | -2.48 ± 0.3 | -1.92 ± 0.35 |
| GUAAAGCAAUAUUACGCCUU | -1.57 ± 0.11 | 0.238 ± 0.15 |
| GUAAAGCAAUAUUACGCGUC | -1.05 ± 0.12 | -1.3 ± 0.14 |
| GUAAAGCAAUAUUACGCUAA | -1.65 ± 0.087 | -0.135 ± 0.11 |
| GUAAAGCAAUAUUACGCUCA | -0.138 ± 0.095 | 0.776 ± 0.14 |
| GUAAAGCAAUAUUACGGAUU | -0.675 ± 0.079 | -0.288 ± 0.1 |
| GUAAAGCAAUAUUACGGUUG | -2.91 ± 0.21 | -1.41 ± 0.2 |
| GUAAAGCAAUAUUACGUCAG | -3.53 ± 0.32 | -1.83 ± 0.19 |
| GUAAAGCAAUAUUACGUCUA | 0.446 ± 0.11 | 0.0339 ± 0.13 |
| GUACAGCAAUAUUACGACGG | -3.75 ± 0.22 | -2.89 ± 0.21 |

| Sequence | self-splicing fitness (ln) (30 °C) | self-splicing fitness (ln) (37 °C) |
| --- | --- | --- |
| GUACAGCAAUAUUACGAGCA | -1.59 ± 0.13 | -1.12 ± 0.13 |
| GUACAGCAAUAUUACGAUAA | -1.95 ± 0.12 | -0.911 ± 0.13 |
| GUACAGCAAUAUUACGCAAC | -2.08 ± 0.18 | -0.557 ± 0.17 |
| GUACAGCAAUAUUACGCAAG | -2.59 ± 0.16 | -2.08 ± 0.17 |
| GUACAGCAAUAUUACGCAUU | -2.76 ± 0.14 | -0.835 ± 0.087 |
| GUACAGCAAUAUUACGCCCA | -1.14 ± 0.4 | 0.32 ± 0.36 |
| GUACAGCAAUAUUACGCCGA | – | -1.96 ± 0.41 |
| GUACAGCAAUAUUACGCGAA | -2.24 ± 0.13 | -2.22 ± 0.14 |
| GUACAGCAAUAUUACGCGAC | -4.09 ± 0.28 | -1.87 ± 0.16 |
| GUACAGCAAUAUUACGCGAU | -4.98 ± 0.46 | -2.71 ± 0.26 |
| GUACAGCAAUAUUACGCGCU | -1.36 ± 0.13 | -0.689 ± 0.19 |
| GUACAGCAAUAUUACGCGGG | -1.5 ± 0.092 | -2.71 ± 0.15 |
| GUACAGCAAUAUUACGCUCG | -0.881 ± 0.13 | -0.344 ± 0.14 |
| GUACAGCAAUAUUACGCUGC | -4.33 ± 0.26 | -2.74 ± 0.3 |
| GUACAGCAAUAUUACGGAAG | -1.45 ± 0.11 | -3.01 ± 0.25 |
| GUACAGCAAUAUUACGGACC | -2.76 ± 0.13 | -2.1 ± 0.2 |
| GUACAGCAAUAUUACGGGGU | -3.29 ± 0.16 | -2.34 ± 0.11 |
| GUACAGCAAUAUUACGGUAA | -0.865 ± 0.13 | -0.97 ± 0.12 |
| GUACAGCAAUAUUACGGUUC | -1.29 ± 0.074 | -0.703 ± 0.08 |
| GUACAGCAAUAUUACGUCUU | -0.533 ± 0.079 | 0.628 ± 0.092 |
| GUAGAGCAAUAUUACGAACA | -2.46 ± 0.17 | -0.783 ± 0.16 |
| GUAGAGCAAUAUUACGACGU | -0.438 ± 0.16 | 0.352 ± 0.16 |
| GUAGAGCAAUAUUACGACUG | -1.22 ± 0.15 | -1.12 ± 0.24 |
| GUAGAGCAAUAUUACGAGCG | -0.682 ± 0.17 | -0.875 ± 0.21 |

| Sequence | self-splicing fitness (ln) (30 °C) | self-splicing fitness (ln) (37 °C) |
| --- | --- | --- |
| GUAGAGCAAUAUUACGAUAG | -2.06 ± 0.15 | -1.42 ± 0.14 |
| GUAGAGCAAUAUUACGAUCU | -0.617 ± 0.12 | -0.114 ± 0.15 |
| GUAGAGCAAUAUUACGAUGC | -0.0786 ± 0.15 | -0.434 ± 0.13 |
| GUAGAGCAAUAUUACGCAGC | -0.915 ± 0.17 | -2.37 ± 0.22 |
| GUAGAGCAAUAUUACGCCCG | -2.15 ± 0.3 | -1.85 ± 0.3 |
| GUAGAGCAAUAUUACGCGCG | -0.605 ± 0.07 | -0.12 ± 0.094 |
| GUAGAGCAAUAUUACGGCGC | -0.386 ± 0.18 | -0.378 ± 0.22 |
| GUAGAGCAAUAUUACGGCUG | -1.04 ± 0.13 | -0.584 ± 0.14 |
| GUAGAGCAAUAUUACGGGAU | -2.01 ± 0.098 | -1.19 ± 0.12 |
| GUAGAGCAAUAUUACGGUAC | -1.54 ± 0.12 | 0.127 ± 0.14 |
| GUAGAGCAAUAUUACGGUGC | -1.15 ± 0.13 | -1 ± 0.19 |
| GUAGAGCAAUAUUACGUAAC | -0.96 ± 0.11 | -0.246 ± 0.14 |
| GUAGAGCAAUAUUACGUACU | -2.23 ± 0.24 | -1.92 ± 0.24 |
| GUAGAGCAAUAUUACGUAGG | -3.28 ± 0.17 | -1.96 ± 0.17 |
| GUAGAGCAAUAUUACGUAUG | -3.88 ± 0.22 | -3.78 ± 0.23 |
| GUAGAGCAAUAUUACGUCUG | -1.6 ± 0.15 | -1.58 ± 0.21 |
| GUAGAGCAAUAUUACGUCUU | -0.122 ± 0.075 | 0.195 ± 0.083 |
| GUAGAGCAAUAUUACGUUCU | -2.74 ± 0.12 | -0.917 ± 0.099 |
| GUAGAGCAAUAUUACGUUGU | -2.53 ± 0.3 | -0.699 ± 0.29 |
| GUAUAGCAAUAUUACGAAAU | -3.05 ± 0.25 | -1.63 ± 0.22 |
| GUAUAGCAAUAUUACGAAUG | -3 ± 0.24 | -2.32 ± 0.28 |
| GUAUAGCAAUAUUACGACGC | -0.42 ± 0.16 | 0.113 ± 0.18 |
| GUAUAGCAAUAUUACGAGCA | -2.06 ± 0.2 | -1.12 ± 0.16 |
| GUAUAGCAAUAUUACGAUGA | -1.62 ± 0.16 | -0.697 ± 0.14 |
